Experimental findings from FireProtDB (doi:10.1016/0003-9861(92)90047-z) are described below.

B1: Tryptophan synthase alpha chain, P0A877 (parent)
chain: MERYESLFAQLKERKEGAFVPFVTLGDPGIEQSLKIIDTLIEAGADALELGIPFSDPLADGPTIQNATLRAFAAGVTPAQCFEMLALIRQKHPTIPIGLLMYANLVFNKGIDEFYAQCEKVGVDSVLVADVPVEESAPFRQAALRHNVAPIFICPPNADDDLLRQIASYGRGYTYLLSRAGVTGAENRAALPLNHLVAKLKEYNAAPPLQGFGISAPDQVKAAIDAGAAGAISGSAIVKIIEQHINEPEKMLAALKVFVQPMKAATRS

The variants in the data set derive from B1. Particulars: Escherichia coli (strain K12); pH 7.2; Thermal; DSC; Sodium phosphate 1 mM; reversible: yes; structure 1WQ5; whole UniProt chain shown.

In general, Tm refers to the temperature at which the thermal transition is half complete. For the variant MERYESLFAQLKERKEGAFVSFVTLGDPGIEQSLKIIDTLIEAGADALELGIPFSDPLADGPTIQNATLRAFAAGVTPAQCFEMLALIRQKHPTIPIGLLMYANLVFNKGIDEFYAQCEKVGVDSVLVADVPVEESAPFRQAALRHNVAPIFICPPNADDDLLRQIASYGRGYTYLLSRAGVTGAENRAALPLNHLVAKLKEYNAAPPLQGFGISAPDQVKAAIDAGAAGAISGSAIVKIIEQHINEPEKMLAALKVFVQPMKAATRS [P21S], the Tm was determined as 55.2 °C and the “change of melting temperature, mutant - wild type (higher = more stable)” value (from here on “change of melting temperature, mutant”) is -4.3 °C.
For MERYESLFAQLKERKEGAFVPFVTLGDPGIEQSLKIIDTLIEAGADALELGIPFSDPLADGPTIQNATLRAFAAGVTPAQCFEMLALIRQKHPTIPIGLLTYANLVFNKGIDEFYAQCEKVGVDSVLVADVPVEESAPFRQAALRHNVAPIFICPPNADDDLLRQIASYGRGYTYLLSRAGVTGAENRAALPLNHLVAKLKEYNAAPPLQGFGISAPDQVKAAIDAGAAGAISGSAIVKIIEQHINEPEKMLAALKVFVQPMKAATRS [M101T] the same measures were 67.1 °C and 7.6 °C.
The like results for MERYESLFAQLKERKEGAFVPFVTLGDPGIEQSLKIIDTLIEAGADALELGIPFSDPLADGPTIQNATLRAFAAGVTPAQCFEMLALIRQKHPTIPIGLLIYANLVFNKGIDEFYAQCEKVGVDSVLVADVPVEESAPFRQAALRHNVAPIFICPPNADDDLLRQIASYGRGYTYLLSRAGVTGAENRAALPLNHLVAKLKEYNAAPPLQGFGISAPDQVKAAIDAGAAGAISGSAIVKIIEQHINEPEKMLAALKVFVQPMKAATRS [M101I] were, in that order, 63.2 °C and 3.7 °C.
In the case of MERYESLFAQLKERKEGAFVPFVTLGDPGIEQSLKIIDTLIEAGADALELGIPFSDPLADGPTIQNATLRAFAAGVTPAQCFEMLALIRQKHPTIPIGLLVYANLVFNKGIDEFYAQCEKVGVDSVLVADVPVEESAPFRQAALRHNVAPIFICPPNADDDLLRQIASYGRGYTYLLSRAGVTGAENRAALPLNHLVAKLKEYNAAPPLQGFGISAPDQVKAAIDAGAAGAISGSAIVKIIEQHINEPEKMLAALKVFVQPMKAATRS [M101V], the Tm was 67.1 °C and the “change of melting temperature, mutant” value came out at 7.6 °C.
The like results for MERYESLFAQLKERKEGAFVPFVTLGDPGIEQSLKIIDTLIEAGADALELGIPFSDPLADGPTIQNATLRAFAAGVTPAQCFEMLALIRQKHPTIPIGLLMCANLVFNKGIDEFYAQCEKVGVDSVLVADVPVEESAPFRQAALRHNVAPIFICPPNADDDLLRQIASYGRGYTYLLSRAGVTGAENRAALPLNHLVAKLKEYNAAPPLQGFGISAPDQVKAAIDAGAAGAISGSAIVKIIEQHINEPEKMLAALKVFVQPMKAATRS [Y102C] were, in that order, 60.9 °C and 1.4 °C.
For MERYESLFAQLKERKEGAFVPFVTLGDPGIEQSLKIIDTLIEAGADALGLGIPFSDPLADGPTIQNATLRAFAAGVTPAQCFEMLALIRQKHPTIPIGLLMYANLVFNKGIDEFYAQCEKVGVDSVLVADVPVEESAPFRQAALRHNVAPIFICPPNADDDLLRQIASYGRGYTYLLSRAGVTGAENRAALPLNHLVAKLKEYNAAPPLQGFGISAPDQVKAAIDAGAAGAISGSAIVKIIEQHINEPEKMLAALKVFVQPMKAATRS [E49G] the same measures were 57.7 °C and -1.8 °C.
The like results for MERYESLFAQLKERKEGAFVPFVTLGDPGIEQSLKIIDTLIEAGADALELGIHFSDPLADGPTIQNATLRAFAAGVTPAQCFEMLALIRQKHPTIPIGLLMYANLVFNKGIDEFYAQCEKVGVDSVLVADVPVEESAPFRQAALRHNVAPIFICPPNADDDLLRQIASYGRGYTYLLSRAGVTGAENRAALPLNHLVAKLKEYNAAPPLQGFGISAPDQVKAAIDAGAAGAISGSAIVKIIEQHINEPEKMLAALKVFVQPMKAATRS [P53H] were, in that order, 56.2 °C and -3.3 °C.
Regarding MERYESLFAQLKERKEGAFVPFVTLGDPGIEQSLKIIDTLIEAGADALELGITFSDPLADGPTIQNATLRAFAAGVTPAQCFEMLALIRQKHPTIPIGLLMYANLVFNKGIDEFYAQCEKVGVDSVLVADVPVEESAPFRQAALRHNVAPIFICPPNADDDLLRQIASYGRGYTYLLSRAGVTGAENRAALPLNHLVAKLKEYNAAPPLQGFGISAPDQVKAAIDAGAAGAISGSAIVKIIEQHINEPEKMLAALKVFVQPMKAATRS [P53T], the Tm worked out at 55.2 °C and the “change of melting temperature, mutant” value was -4.3 °C.
The like results for MERYESLFAQLKERKEGAFVPFVTLGDPGIEQSLKIIDTLIEAGADALELGIPFSDPLADGPKIQNATLRAFAAGVTPAQCFEMLALIRQKHPTIPIGLLMYANLVFNKGIDEFYAQCEKVGVDSVLVADVPVEESAPFRQAALRHNVAPIFICPPNADDDLLRQIASYGRGYTYLLSRAGVTGAENRAALPLNHLVAKLKEYNAAPPLQGFGISAPDQVKAAIDAGAAGAISGSAIVKIIEQHINEPEKMLAALKVFVQPMKAATRS [T63K] were, in that order, 56.2 °C and -3.3 °C.
The like results for MERYESLFAQLKERKEGAFVPFVMLGDPGIEQSLKIIDTLIEAGADALELGIPFSDPLADGPTIQNATLRAFAAGVTPAQCFEMLALIRQKHPTIPIGLLMYANLVFNKGIDEFYAQCEKVGVDSVLVADVPVEESAPFRQAALRHNVAPIFICPPNADDDLLRQIASYGRGYTYLLSRAGVTGAENRAALPLNHLVAKLKEYNAAPPLQGFGISAPDQVKAAIDAGAAGAISGSAIVKIIEQHINEPEKMLAALKVFVQPMKAATRS [T24M] were, in that order, 61.8 °C and 2.3 °C.
For MERYESLFAQLKERKEGAFVPFVTLGDPGIEQSLKIIDTLIEAGADALELGIPFSDPLADGPTIQNATLRAFAAGVTSAQCFEMLALIRQKHPTIPIGLLMYANLVFNKGIDEFYAQCEKVGVDSVLVADVPVEESAPFRQAALRHNVAPIFICPPNADDDLLRQIASYGRGYTYLLSRAGVTGAENRAALPLNHLVAKLKEYNAAPPLQGFGISAPDQVKAAIDAGAAGAISGSAIVKIIEQHINEPEKMLAALKVFVQPMKAATRS [P78S] the same measures were 57.9 °C and -1.6 °C.
